Measured values reported in US20180326084A1 (Genmab, published 2018).

T1: human AXL with a cynomolgus monkey extracellular domain (ECD) (cynomolgus monkey (Macaca …, UniProt P30530 26-894))
T1 construct: Chimera on transfected HEK293T cells; also called cynomolgus AXL; cynomolgus AXL-ECD
T1 chain: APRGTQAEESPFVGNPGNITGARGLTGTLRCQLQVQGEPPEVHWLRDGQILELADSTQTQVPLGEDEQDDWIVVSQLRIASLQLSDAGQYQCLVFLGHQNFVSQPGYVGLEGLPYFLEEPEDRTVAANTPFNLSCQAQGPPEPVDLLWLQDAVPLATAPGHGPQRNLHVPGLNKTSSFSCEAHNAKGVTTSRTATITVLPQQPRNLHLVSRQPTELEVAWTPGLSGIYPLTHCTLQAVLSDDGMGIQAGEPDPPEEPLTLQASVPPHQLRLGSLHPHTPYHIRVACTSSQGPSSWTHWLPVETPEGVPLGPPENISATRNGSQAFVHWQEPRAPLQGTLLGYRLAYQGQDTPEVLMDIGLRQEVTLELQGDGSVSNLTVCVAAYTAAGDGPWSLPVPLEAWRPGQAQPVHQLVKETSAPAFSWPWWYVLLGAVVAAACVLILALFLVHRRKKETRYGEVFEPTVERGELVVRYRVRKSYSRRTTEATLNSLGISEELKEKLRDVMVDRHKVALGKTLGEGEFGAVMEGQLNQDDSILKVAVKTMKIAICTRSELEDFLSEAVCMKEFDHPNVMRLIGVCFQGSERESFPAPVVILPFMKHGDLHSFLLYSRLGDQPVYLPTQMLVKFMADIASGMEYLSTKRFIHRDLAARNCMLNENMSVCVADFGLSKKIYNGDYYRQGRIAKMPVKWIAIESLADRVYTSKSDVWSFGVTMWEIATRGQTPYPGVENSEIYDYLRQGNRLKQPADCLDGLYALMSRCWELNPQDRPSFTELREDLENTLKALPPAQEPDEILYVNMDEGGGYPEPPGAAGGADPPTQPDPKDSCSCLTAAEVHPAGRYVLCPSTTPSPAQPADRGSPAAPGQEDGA

T2: Homo sapiens AXL-Mus musculus Ig2 domain (p33-AXL-mIg2) (human-mouse chimera, UniProt P30530 26-894)
T2 construct: Expressed in HEK293F cells; also called hsAXL-mmIg2; TH1021-mIg2
T2 chain: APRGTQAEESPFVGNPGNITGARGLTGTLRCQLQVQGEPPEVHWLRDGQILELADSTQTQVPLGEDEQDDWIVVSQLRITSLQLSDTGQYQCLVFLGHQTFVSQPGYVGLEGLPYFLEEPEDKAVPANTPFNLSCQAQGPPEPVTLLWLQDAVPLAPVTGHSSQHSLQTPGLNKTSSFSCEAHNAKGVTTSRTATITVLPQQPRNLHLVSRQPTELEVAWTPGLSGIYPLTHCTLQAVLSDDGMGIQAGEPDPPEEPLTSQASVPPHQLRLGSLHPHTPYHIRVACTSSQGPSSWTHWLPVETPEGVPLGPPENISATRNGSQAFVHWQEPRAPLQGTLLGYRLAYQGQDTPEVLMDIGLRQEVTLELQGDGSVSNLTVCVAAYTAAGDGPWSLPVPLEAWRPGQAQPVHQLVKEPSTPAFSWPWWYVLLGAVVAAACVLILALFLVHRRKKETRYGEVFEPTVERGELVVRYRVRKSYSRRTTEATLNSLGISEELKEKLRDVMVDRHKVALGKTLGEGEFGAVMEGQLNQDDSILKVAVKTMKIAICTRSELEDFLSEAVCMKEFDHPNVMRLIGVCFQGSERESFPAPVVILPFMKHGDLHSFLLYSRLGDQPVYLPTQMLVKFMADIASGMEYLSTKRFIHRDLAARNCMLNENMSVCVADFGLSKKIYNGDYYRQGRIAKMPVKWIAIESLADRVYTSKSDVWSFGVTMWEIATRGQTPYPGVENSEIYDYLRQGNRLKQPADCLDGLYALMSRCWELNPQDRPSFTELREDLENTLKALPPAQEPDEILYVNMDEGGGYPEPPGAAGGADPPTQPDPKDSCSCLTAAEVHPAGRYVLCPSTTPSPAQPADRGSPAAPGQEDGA

T3: Homo sapiens AXL-Mus musculus FN1 domain (p33-AXL-mFN1) (human-mouse chimera, UniProt P30530 26-894)
T3 construct: Expressed in HEK293F cells; also called hsAXL-mmFN1; TH1021-mFN1
T3 chain: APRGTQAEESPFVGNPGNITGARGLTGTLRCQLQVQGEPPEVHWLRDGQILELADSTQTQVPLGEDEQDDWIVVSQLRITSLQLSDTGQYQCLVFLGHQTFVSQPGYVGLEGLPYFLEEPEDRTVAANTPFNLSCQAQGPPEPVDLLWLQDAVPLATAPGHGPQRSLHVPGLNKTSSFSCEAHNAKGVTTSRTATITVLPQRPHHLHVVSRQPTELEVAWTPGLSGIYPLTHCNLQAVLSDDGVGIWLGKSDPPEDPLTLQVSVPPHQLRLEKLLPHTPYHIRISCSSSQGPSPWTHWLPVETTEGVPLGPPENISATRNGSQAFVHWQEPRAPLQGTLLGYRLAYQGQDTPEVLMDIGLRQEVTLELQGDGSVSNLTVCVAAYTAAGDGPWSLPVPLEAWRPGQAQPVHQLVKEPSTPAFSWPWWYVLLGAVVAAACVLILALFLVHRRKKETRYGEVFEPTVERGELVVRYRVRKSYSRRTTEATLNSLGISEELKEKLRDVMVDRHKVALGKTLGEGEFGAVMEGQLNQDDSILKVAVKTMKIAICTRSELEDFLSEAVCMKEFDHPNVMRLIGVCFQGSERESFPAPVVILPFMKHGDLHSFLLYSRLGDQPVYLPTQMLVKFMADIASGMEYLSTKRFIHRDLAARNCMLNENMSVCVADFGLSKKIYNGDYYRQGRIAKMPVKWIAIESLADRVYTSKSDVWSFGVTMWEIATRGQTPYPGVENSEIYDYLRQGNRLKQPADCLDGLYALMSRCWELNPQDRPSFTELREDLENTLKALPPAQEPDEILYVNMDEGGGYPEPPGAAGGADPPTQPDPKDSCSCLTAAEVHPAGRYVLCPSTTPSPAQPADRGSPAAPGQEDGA


Assays:
[1] = target: T1, human AXL with a cynomolgus monkey …; test: flow cytometry, HEK293T cells with human AXL carrying cynomolgus ECD
[2] = target: T2, Homo sapiens AXL-Mus musculus Ig2 …; test: flow cytometry, 1 µg/mL antibody, transfected HEK293F cells
[3] = target: T3, Homo sapiens AXL-Mus musculus FN1 …; test: as above
[4] = target: T4, human AXL (full length) (human, UniProt P30530 26-894); test: flow cytometry, HEK293T cells transiently transfected with human AXL
T4 construct: also called TH1021-AXL; TH1021-hAXL

[5] = target: T4, human AXL (full length); test: FMAT screening assay, HEK-293F cells transiently expressing human AXL

| Binder | EC50 [1] [µg/mL] | binding result [2] | binding result [3] | EC50 (read off the curve) [4] [µg/mL] | EC50 [5] [µg/mL] | Maximal binding (Arbitrary units) [5] [arbitrary units] |
| --- | --- | --- | --- | --- | --- | --- |
| IgG1-AXL-183 (antibody, V domains shown) VH: QVQLQQWGAGLLKPSETLSLTCAVYGGSFSGYYWSWIRQPPGKGLEWIGEINQSGSTNYNPSLKSRVTISVDTSKNQFSLKLSSVTAADTSVYYCASGNWDHFFDYWGQGTLVTVSS VL: DIQMTQSPSSVSASVGDRVTITCRASQGISSWLAWYQHKPGKAPKLLIYATSSLQSGVTSRFSGSGSGTDFTLTISSLQPEDFATYYCQQAKSFPWTFGQGTKVEIK | 0.309 | binds | binds | ~0.1 |  |  |
| IgG1-AXL-148 (antibody, V domains shown) VH: EVQLLESGGGLVQPGGSLRLSCAASGFTFSSYAMTWVRQAPGKGLEWVSAISISGGSTFYADSVKGRFTISRDNSKNTLYLQMNSLRAEDTAVYYCRGYSGYVYDAFDFWGQGTMVTVSS VL: DIQMTQSPSSLSASVGDRVTITCRASQGISNWLAWYQQKPEKAPKSLIYAASSLQSGVPSRFSGSGSGTDFTLTISSLQPEDFATYYCQQYNSYPLTFGGGTKVEIK | 0.152 |  | binds |  | 0.0036 | 3500 |
| IgG1-AXL-726 (antibody, V domains shown) VH: QVQLQQWGAGLLKPSETLSLTCAIDGGSFSGYYWSWIRQPPGKGLEWIGEISHSGRTNYNPSLKSRVTISIDTSKNQFSLKLSSVAAADTAVYYCARFITMIRGAIITHFDYWGQGALVTVSS VL: DIQMTQSPSSLSASVGDRVTITCRASQGISSWLAWYQQKPEKAPKSLIYAASSLQSGVPSRFSGSGSGTDFTLTISSLQPEDFATYYCQQYHSYPYTFGQGTKLEIK | 0.349 | binds | binds | ~0.09 | 0.0471 | 3150 |
| IgG1-AXL-733 (antibody, V domains shown) VH: QVQLVESGGGVVQPGRSLRLSCAASGFSFSTYAMHWVRQAPGKGLEWVAVISYDGDNKYSADSVKGRFTISRDNSKNTLYLQMNSLRAEDTAVYYCARGRKLGIDAFDIWGQGTMVTVSS VL: AIQLTQSPSSLSASVGDRVTITCRASQGISSALAWYQQKPGKAPKLLIYDASSLESGVPSRFSGSGSGTDFTLTISGLQPEDFATYYCQQFNSYPFTFGPGTKVDIK | 0.254 | binds |  |  |  |  |
